Assay results taken from the supplement of paper PMC9170038.

What was measured:
MS2 coat protein [1] = assay: apparent KD of MS2 coat protein; higher = weaker reporter binding; settings: Eterna round: R101
Experimental: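 RNA-MaP: designed FMN/MS2 RNA switches (84 nt design region) are transcribed on-chip within common flanks and titrated with SNAP-549-labelled MS2 coat protein (about 1-3000 nM) in 100 mM Tris pH 7.5, 80 mM KCl, 4 mM MgCl2, without or with 200 uM FMN. Median apparent KD per design; activation ratio = KD,OFF / KD,ON.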

MS2 coat protein [2] = assay: apparent KD of MS2 coat protein, switch ON state; designed switch direction (-1 OFF switch, 1 ON switch): 1; higher = weaker reporter binding; settings: FMN input: 0 or 200 uM; Eterna round: R93 (includes R88 designs)
Outline: (§1)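 SNAP-549-labelled MS2 coat protein was titrated onto designed RNA switches that had been transcribed on-chip from Illumina sequencing clusters. Amounts doubled from 0.7 or 1.5 nM to 3 µM in 100 mM Tris-HCl pH 7.5, 80 mM KCl, 4 mM MgCl2, with constant ligand or without. Apparent KD is the median per design of normalised cluster binding-curve fits.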

MS2 coat protein [3] = assay: apparent KD of MS2 coat protein, switch OFF state (with FMN for OFF switches, without FMN for ON switches); designed switch direction (-1 OFF switch, 1 ON switch): 1; higher = weaker reporter binding; settings: FMN input: 0 or 200 uM; Eterna round: R93 (includes R88 designs)
Outline: as §1

Sequence | apparent KD of MS2 coat protein (MS2 coat protein [1]; input ligand: FMN 200 uM) [nM] | apparent KD of MS2 coat protein (MS2 coat protein [1]; input ligand: none) [nM] | apparent KD of MS2 coat protein (MS2 coat protein [2]) [nM] | apparent KD of MS2 coat protein (MS2 coat protein [3]) [nM]
AAUAAUCUUUAAGGAUAUCAGUGGCAAAGCCACUGAGAAGGUGAGGAUCACCCAUCUACGUGACCCUGGAAACAGGGUCACGAA [#SharedSequence - ExNG1-12] (puzzle (switch architecture): Exclusion NG 1) | 84.6 | 66.7 |  | 
ACACAUGAGGAUCACCCAUGUAGCUGGCGUCUGCGCCAGCCACAGGAUAUACGGUAACACAAACCGUAGAAGGGUGAUAAACAC [Inerre] (puzzle (switch architecture): Same State NG 3) | 54.5 | 113 |  | 
ACACGUCGUGAGAAGGAGGAUCACCCUUUCGAAAGAAAUAGCCACCGUGAAAACGGUGGCAAAUCUUAGGAUAUCACGACGUGA [#SharedSequence - IExNG2: 5] (puzzle (switch architecture): Inverted Exclusion NG 2) | 189 | 189 |  | 
CCCUCGCAAUAACAGGAUAUACAUGGUCAAACAUGAGGAUCACCCAUGUGAGGAAGUUGGCGGUCGUAGAAGGGUUGUUGGCUCA [Beisvesoqu] |  |  | 42.8 | 166
CGAAAGGAGAGAGAGGAUAUCCAAAGGAAAACAUGAGGAUCACCCAUGUAGAAGGUAGGAGAUUGGGAGAAGGCUCAAGAGAGAU [salish99-ss2-147] |  |  | 32.1 | 34.3
CGAAAGGAGAGAGAGGAUAUCCAAAGGAAAACAUGAGGAUCACCCAUGUAGAAGGUAGGAGAUUGGGAGAAGGCUCAAGAGAGUA [salish99-ss2-149] |  |  | 25.7 | 36.3
CGAAAGUAUGCACAGGAUAUGUACAGGCUAACAUGAGGAUCACCCAUGUGAAAAUGGACCAUGUCGCAGAAGGGUGCCCUCCCGA [Mageor] |  |  | 22.1 | 40.2
CGGAAGGAGAGAGAGGAUAUCCAAAGGAAAACAUGAGGAUCACCCAUGUAGAAGGUAGGAAAUUGGGAGAAGGCUCAAGAGACAG [salish99-ss2-125] |  |  | 25.3 | 55.9
CGGAAGGAGAGAGAGGAUAUCCAAAGGAAAACAUGAGGAUCACCCAUGUAGAAGGUAGGAAAUUGGGAGAAGGCUCAAGAGAUAG [salish99-ss2-124] |  |  | 20.6 | 39.1
CUUUCCGCGCUAUAGGAUAUGAAUGAACCUACAUGAGGAUCACCCAUGUCGAACUCGGUCCAAAAUCAGAAGGAUGGCGAGGCGC [Oratis] |  |  | 119 | 178
GAAAAACAUGAGGAUCACCCAUGUAAGAUAAACACAGGAUAUGCGAAAAUAAAUAAAGAAGCAGAAGGGUGAAGAA [Mat - Same State 1 - Tesla mod - 73] |  |  | 11.1 | 26.5
GAAAAACAUGAGGAUCACCCAUGUAGAAAUAUGGGAGGAUAUACAAAGACGAAAGUCAAAGUAGAAGGCCUAAAGA [Mat - Same State 1 - Eli mod - 34] |  |  | 15.5 | 91.1
GAAAAACAUGAGGAUCACCCAUGUGAAAACUUGGGAGGAUAUACAAAGACGAAAGUCGAAGUAGAAGGCCUAUAAG [Same State 1.4l (Mat - Mod of Eli - )] |  |  | 21.1 | 85.9
GAAAAACAUGAGGAUCACCCAUGUGAGAAUAUGGGAGGAUAUACGAAGACGAGAGUCAAAGUAGAAGGCCUAAAAG [Mat - Same State 1 - Eli mod - 30] |  |  | 27.2 | 82.9
GAAAAACAUGAGGAUCACCCAUGUGGAAAUAUGGGAGGAUAUACAAAGACGGAAGUCAAAGUAGAAGGCCUAAAAG [Mat - Same State 1 - Eli mod - D10] |  |  | 26.5 | 119
GAAAAACAUGAGGAUCACCCAUGUGUAAAUAUGGGAGGAUAUACAAAGACGUAAGUCAAAGUAGAAGGCCUAAAAG [Mat - Same State 1 - Eli mod - D12] |  |  | 29.9 | 95.1
GAAAUACAUGAGGAUCACCCAUGUUAGGUGGGUCAAGGAUAUUGAGAUAAAUAAAAAUCUCGAGAAGGUGAAUAAA [JR_SS001_Sub202] |  |  | 87.7 | 199
GACGAACAUGAGGAUCACCCAUGUAAAAACGUACAAGGAUAUGUGUGGAAACCGUACUAUACAGAAGGUGUCUGUC [SS1 - 96] |  |  | 37.3 | 38.6
GAGAGACAUGAGGAUCACCCAUGUAGGAUUAUGGGAGGAUAUACAAAGACGAGAGUCAGAGUAGAAGGCCUAGGAA [salish99-ss1-137(!)] |  |  | 24.2 | 74.4
GAGAGGAAGAGAGAGGAUAUCCAAAGGAAAACAUGAGGAUCACCCAUGUAAAAGGUAGGAAAUUGGGAGAAGGCUCAAGAGAGAG [salish99-ss2-063] |  |  | 29.1 | 29.6

Sequence | apparent KD of MS2 coat protein (MS2 coat protein [1]; input ligand: FMN 200 uM) [nM] | apparent KD of MS2 coat protein (MS2 coat protein [1]; input ligand: none) [nM] | apparent KD of MS2 coat protein (MS2 coat protein [2]) [nM] | apparent KD of MS2 coat protein (MS2 coat protein [3]) [nM]
GAGAUACAUGAGGAUCACCCAUGUUGAUACAUGGGAGGAUAUACAAGGUCGAAAGAUAAGGUAGAAGGCCUAAAAG [LROPPY Same State 1 - v04_deltaG=3.5] |  |  | 47.1 | 15.7
GAGGACAUAGUACAGGAUAUAUGAAUAGUCACAUGAGGAUCACCCAUGUCCAUUUAUAUGGGCACAUAGAAGGGUGGUAGUUAUC [SameState2 Malc#27] |  |  | 24.6 | 347
GAGGACAUAGUACAGGAUAUAUGAAUAGUCACAUGAGGAUCACCCAUGUGCAUUUAUAUGCGCACAUAGAAGGGUGGUAGUUAUC [SameState2 Malc#28] |  |  | 155 | 67
GAGGACCUAGGAUAGGAUAUGUGAAUAAUUACAUGAGGAUCACCCAUGUCCAUUUAUAUGGGAACAUAGAAGGGUUCUGGUUAUC [SameState2 Malc#38] |  |  | 51.8 | 71.9
GAUAAACAUGAGGAUCACCCAUGUAGAUAUAUGGGAGGAUAUACAAAGACGAUAGUCAAAGUAGAAGGCCUAAUAG [77%, Mat - Mod of Eli - With 4 more U's] |  |  | 29.6 | 84
GCUUAUCCAUGCUAGGAUAUCGGCGAGAAAACAUGAGGAUCACCCAUGUGCUUGCAUAAAAGUCACGAGAAGGAGCCUGAUGGAC [Quanletira] |  |  | 19.7 | 17.3
GGAAGACAUGAGGAUCACCCAUGUGGGAUUAUGGGAGGAUAUACAAAGACGAGAGUCAGAGUAGAAGGCCUAGGAG [salish99-ss1-122(!)] |  |  | 61.1 | 107
GGCUGCAAUUAUGAGGAUAUGUUCGGAUGAACAUGAGGAUCACCCAUGUGGCGAUAGCUAUCUGUGCAGAAGGUGUAGUGGUAGC [Edlexete] |  |  | 38.8 | 130
GGGAGACAUGAGGAUCACCCAUGUAGAAGGAUGGGAGGAUAUACAAAGACGAGAGUCAGAGUAGAAGGCCUAGGAA [salish99-ss1-189-4KCAL] |  |  | 29 | 58.5
GGGAGACAUGAGGAUCACCCAUGUGAGAAGAGGCGAGGAUAUCGAAAGAAAGAAGAGAAACGAGAAGGCGCGAGCC [salish99-SS1-064] |  |  | 94.2 | 66.4
GGGAGGAAGAGAGAGGAUAUCCAAAGGAAAACAUGAGGAUCACCCAUGUAAAAGGUAGGAAAUUGGGAGAAGGCUCAAGAGAACG [salish99-ss2-056] |  |  | 25.5 | 28.9
GUGUAAAGAAUCGAGGAUAUCCAAAAAAGCACAUGAGGAUCACCCAUGUAAGAGAGAGAAUAAUGGGAGAAGGCGAGUUAUCGGU [JR_SS002_Sub1712] |  |  | 18.1 | 64.1
UAGCAGUGCGGGUAGGAUAUGUAGGGUGGUACAUGAGGAUCACCCAUGUAUCCACCCUUCGACCGGCAGAAGGGCCUGUCACUGC [Edor] |  |  | 17.9 | 16.9
UAUCCGGCAGUGUAGGAUAUGUUGUAGUCAACAUGAGGAUCACCCAUGUGGAUUAUAUAAGAUUCACAGAAGGGCACUGCAUUGC [Geiner] |  |  | 87.8 | 74.1
UCGUCCUCGUGCUAGGAUAUCCAUCGUAAAACAUGAGGAUCACCCAUGUAGAAAUGCGCCUACGAGGAGAAGGAGCGAUGUGGAU [Velemageer] |  |  | 14.9 | 19
UGGAAACAUGAGGAUCACCCAUGUAAAAGGUGGUUAGGAUAUGCAAAACGGAAAACGAAAGCAGAAGGGACAAAAA [Inspired by JR and Meechl] |  |  | 130 | 320
UGGAGACAUGAGGAUCACCCAUGUGAGAAGAGGCGAGGAUAUCGAAAAAAAAAAAAAAAACGAGAAGGCGCGAGAA [salish99-SS1-007] |  |  | 28.9 | 56.3
UGUCCACAUGAGGAUCACCCAUGUCAGGAGGUGACAGGAUAUUGCGAAAAAAAAAAAAAGCAAGAAGGGUCUGAUU [SameState1-cac1] |  |  | 36.4 | 98.4
UUACAGCACAGGUAGGAUAUGUAGGGUGGUACAUGAGGAUCACCCAUGUAUCCACCCUUCGAAAGGCAGAAGGGCCUGUCGCCGC [Leanisqube] |  |  | 13.1 | 15
